Experiments:
[1] = test system: ticagrelor glucuronidation in pooled HIM; test: Effects of typical UGT inhibitors on ticagrelor glucuronidation in pooled HIM; assay type: in vitro ADME, human; settings: 10 μM ticagrelor
Protocol: (§1) Ticagrelor glucuronidation was investigated in an in vitro incubation system by using HLM, HIM, and recombinant human UGTs. The incubation system consisted of enzyme sources (HLM, HIM, or human recombinant UGTs), various concentrations of ticagrelor (dissolved in 50% methanol, 1% v/v, 1, 2, 5, 10, 20, 50, 100, 200, 500 μM of final concentration), alamethicin (50 μg/mg protein), 5 mM MgCl2, 100 mM tris-HCL buffer (pH 7.4), and 5 mM UDPGA in a total volume of 100 μl. Alamethicin is a pore-forming polypeptide used to activate UGTs in HLM and HIM ([Fisher et al., 2000]). Preliminary studies were conducted to determine the optimal protein concentrations and incubation times. Linear conditions of ticagrelor-O-Glu formation from ticagrelor, i.e., HLM, 0.2 mg of protein/ml and 60 min, HIM, 0.2 mg of protein/ml and 60 min, and recombinant human UGTs, 0.2 mg of protein/ml and 60 min were selected. The incubation mixture without UDPGA was placed on ice for 15 min to activate UGT by alamethicin. After pre-incubation for 5 min at 37°C, the reactions were started by the addition of UDPGA. After another 60 min of incubation at 37°C, the reaction was terminated by adding 100 μl of acetonitrile containing internal standard (diazepam). The mixture vortexed for 2 min and then centrifuged at 14,000 rpm for 10 min at 4°C. The resulting supernatant was injected into a liquid chromatography tandem mass spectrometry (LC-MS/MS, Applied Biosystems/MDS Sciex, Foster City, CA) system for the detection of ticagrelor-O-Glu.
(§2) The final concentrations of UGT inhibitors for each UGT isoform were set in accordance with previous publications as follows: atazanavir, 1 μM, UGT1A1; celastrol, 5 μM, UGT1A3; hecogenin, 1 μM, UGT1A4; niflumic acid, 1 μM, UGT1A9; and mefenamic acid, 20 μM, UGT2B7 ([Lee et al., 2019]). The assays were performed as described above, with 10 μM ticagrelor. The percentage of remaining glucuronidation activity was expressed by the following equation: Remaining activity(%)=Concentration of ticagrelor-O-Glu with inhibitor /Concentration of ticagrelor-O-Glu without inhibitor×100.

[2] = test system: ticagrelor glucuronidation in pooled HLM; test: Effects of typical UGT inhibitors on ticagrelor glucuronidation in pooled HLM; assay type: in vitro ADME, human; settings: 10 μM ticagrelor
Protocol: as §1, §2

[3] = substrate: CCCSc1nc(N[C@@H]2C[C@H]2c2ccc(F)c(F)c2)c2nnn([C@@H]3C[C@H](OCCO)[C@@H](O)[C@H]3O)c2n1; test: Ticagrelor glucuronidation by recombinant human UGT2B7; assay type: in vitro ADME; settings: other: recombinant UGT2B7, Michaelis-Menten kinetics; pH 7.4; 37.0 °C
Protocol: as §1
(§3) Kinetic analyses were performed using the mean values of triplicate determinations with either pooled HLM, HIM, or recombinant human UGTs. All data were analyzed by nonlinear regression analysis using the GraphPad Prism 6 (GraphPad Software Inc., CA, United States). Michaelis-Menten kinetics (Eq. 1) or substrate inhibition kinetics (Eq. 2) ([Houston and Kenworthy, 2000]) were tested to determine the optimal model for describing the data. […] Intrinsic clearance (CLint) was calculated by dividing Vmax by Km.

[4] = substrate: CCCSc1nc(N[C@@H]2C[C@H]2c2ccc(F)c(F)c2)c2nnn([C@@H]3C[C@H](OCCO)[C@@H](O)[C@H]3O)c2n1; test: Ticagrelor glucuronidation by recombinant human UGT1A8; assay type: in vitro ADME; settings: other: recombinant UGT1A8, Michaelis-Menten kinetics; pH 7.4; 37.0 °C
Protocol: as §1, §3

[5] = substrate: CCCSc1nc(N[C@@H]2C[C@H]2c2ccc(F)c(F)c2)c2nnn([C@@H]3C[C@H](OCCO)[C@@H](O)[C@H]3O)c2n1; test: Ticagrelor glucuronidation by recombinant human UGT1A3; assay type: in vitro ADME; settings: other: recombinant UGT1A3, Michaelis-Menten kinetics; pH 7.4; 37.0 °C
Protocol: as §1, §3

[6] = substrate: CCCSc1nc(N[C@@H]2C[C@H]2c2ccc(F)c(F)c2)c2nnn([C@@H]3C[C@H](OCCO)[C@@H](O)[C@H]3O)c2n1; test: Ticagrelor glucuronidation by recombinant human UGT1A9; assay type: in vitro ADME; settings: other: recombinant UGT1A9, Michaelis-Menten kinetics; pH 7.4; 37.0 °C
Protocol: as §1, §3

[7] = substrate: CCCSc1nc(N[C@@H]2C[C@H]2c2ccc(F)c(F)c2)c2nnn([C@@H]3C[C@H](OCCO)[C@@H](O)[C@H]3O)c2n1; test: Ticagrelor glucuronidation by recombinant human UGT1A7; assay type: in vitro ADME; settings: other: recombinant UGT1A7, Michaelis-Menten kinetics; pH 7.4; 37.0 °C
Protocol: as §1, §3

[8] = substrate: CCCSc1nc(N[C@@H]2C[C@H]2c2ccc(F)c(F)c2)c2nnn([C@@H]3C[C@H](OCCO)[C@@H](O)[C@H]3O)c2n1; test: Ticagrelor glucuronidation by recombinant human UGT1A1; assay type: in vitro ADME; settings: other: recombinant UGT1A1, Michaelis-Menten kinetics; pH 7.4; 37.0 °C
Protocol: as §1, §3

Molecule: O=C(O)c1cccnc1Nc1cccc(C(F)(F)F)c1 [niflumic acid]
- inhibition of ticagrelor-O-Glu formation ([1]; inhibitor 1 μM): 17.45%
- inhibition of ticagrelor-O-Glu formation ([2]; inhibitor 1 μM): 35.48%

Molecule: hecogenin
- inhibition of ticagrelor-O-Glu formation ([1]; inhibitor 1 μM): 16.75%
- inhibition of ticagrelor-O-Glu formation ([2]; inhibitor 1 μM): 9.29%

Molecule: CC1=C(O)C(=O)C=C2C1=CC=C1[C@@]2(C)CC[C@@]2(C)[C@@H]3C[C@](C)(C(=O)O)CC[C@]3(C)CC[C@]12C [celastrol]
- inhibition of ticagrelor-O-Glu formation ([1]; inhibitor 5 μM): 25.02%
- inhibition of ticagrelor-O-Glu formation ([2]; inhibitor 5 μM): 19.35%

Molecule: COC(=O)N[C@H](C(=O)N[C@@H](Cc1ccccc1)[C@@H](O)CN(Cc1ccc(-c2ccccn2)cc1)NC(=O)[C@@H](NC(=O)OC)C(C)(C)C)C(C)(C)C [atazanavir]
- inhibition of ticagrelor-O-Glu formation ([1]; inhibitor 1 μM): 6.08%
- inhibition of ticagrelor-O-Glu formation ([2]; inhibitor 1 μM): 6.66%

Molecule: Cc1cccc(Nc2ccccc2C(=O)O)c1C [mefenamic acid]
- inhibition of ticagrelor-O-Glu formation ([1]; inhibitor 20 μM): 19.24%
- inhibition of ticagrelor-O-Glu formation ([2]; inhibitor 20 μM): 42.95%

B1: recombinant human UGT2B7 (Homo sapiens) (protein)
chain: GKVLVWAAEYSHWMNIKTILDELIQRGHEVTVLASSASILFDPNNSSALKIEIYPTSLTKTELENFIMQQIKRWSDLPKDTFWLYFSQVQEIMSIFGDITRKFCKDVVSNKKFMKKVQESRFDVIFADAIFPCSELLAELFNIPFVYSLSFSPGYTFEKHSGGFIFPPSYVPVVMSELTDQMTFMERVKNMIYVLYFDFWFEIFDMKKWDQFYSEVLGRPTTLSETMGKADVWLIRNSWNFQFPYPLLPNVDFVGGLHCKPAKPLPKEMEDFVQSSGENGVVVFSLGSMVSNMTEERANVIASALAQIPQKVLWRFDGNKPDTLGLNTRLYKWIPQNDLLGHPKTRAFITHGGANGIYEAIYHGIPMVGIPLFADQPDNIAHMKARGAAVRVDFNTMSSTDLLNALKRVINDPSYKENVMKLSRIQHDQPVKPLDRAVFWIEFVMRHKGAKHLRVAAHDLTWFQYHSLDVIGFLLVCVATVIFIVTKCCLFCFWKFARKAKKGKND
notes: purchased BD Gentest; host or cells: baculovirus-infected insect cells
- Km [3]: 14.53 µM
- Vmax [3]: 2.3e-07 µmol/min/mg
- Vmax/Km [3]: 0.02 µL/min/mg

B2: recombinant human UGT1A8 (Homo sapiens) (protein)
chain: GKLLVVPMDGSHWFTMQSVVEKLILRGHEVVVVMPEVSWQLGKSLNCTVKTYSTSYTLEDLDREFMDFADAQWKAQVRSLFSLFLSSSNGFFNLFFSHCRSLFNDRKLVEYLKESSFDAVFLDPFDACGLIVAKYFSLPSVVFARGIACHYLEEGAQCPAPLSYVPRILLGFSDAMTFKERVRNHIMHLEEHLFCQYFSKNALEIASEILQTPVTAYDLYSHTSIWLLRTDFVLDYPKPVMPNMIFIGGINCHQGKPLPMEFEAYINASGEHGIVVFSLGSMVSEIPEKKAMAIADALGKIPQTVLWRYTGTRPSNLANNTILVKWLPQNDLLGHPMTRAFITHAGSHGVYESICNGVPMVMMPLFGDQMDNAKRMETKGAGVTLNVLEMTSEDLENALKAVINDKSYKENIMRLSSLHKDRPVEPLDLAVFWVEFVMRHKGAPHLRPAAHDLTWYQYHSLDVIGFLLAVVLTVAFITFKCCAYGYRKCLGKKGRVKKAHKSKTH
notes: as for B1
- Km [4]: 6.63 µM
- Vmax [4]: 9e-08 µmol/min/mg
- Vmax/Km [4]: 0.01 µL/min/mg

B3: recombinant human UGT1A3 (Homo sapiens) (protein)
chain: GKVLVVPIDGSHWLSMREVLRELHARGHQAVVLTPEVNMHIKEENFFTLTTYAISWTQDEFDRHVLGHTQLYFETEHFLKKFFRSMAMLNNMSLVYHRSCVELLHNEALIRHLNATSFDVVLTDPVNLCAAVLAKYLSIPTVFFLRNIPCDLDFKGTQCPNPSSYIPRLLTTNSDHMTFMQRVKNMLYPLALSYICHAFSAPYASLASELFQREVSVVDILSHASVWLFRGDFVMDYPRPIMPNMVFIGGINCANRKPLSQEFEAYINASGEHGIVVFSLGSMVSEIPEKKAMAIADALGKIPQTVLWRYTGTRPSNLANNTILVKWLPQNDLLGHPMTRAFITHAGSHGVYESICNGVPMVMMPLFGDQMDNAKRMETKGAGVTLNVLEMTSEDLENALKAVINDKSYKENIMRLSSLHKDRPVEPLDLAVFWVEFVMRHKGAPHLRPAAHDLTWYQYHSLDVIGFLLAVVLTVAFITFKCCAYGYRKCLGKKGRVKKAHKSKTH
notes: as for B1
- Km [5]: 19.19 µM
- Vmax [5]: 7.8e-07 µmol/min/mg
- Vmax/Km [5]: 0.04 µL/min/mg

B4: recombinant human UGT1A9 (Homo sapiens) (protein)
chain: GKLLVVPMDGSHWFTMRSVVEKLILRGHEVVVVMPEVSWQLGRSLNCTVKTYSTSYTLEDLDREFKAFAHAQWKAQVRSIYSLLMGSYNDIFDLFFSNCRSLFKDKKLVEYLKESSFDAVFLDPFDNCGLIVAKYFSLPSVVFARGILCHYLEEGAQCPAPLSYVPRILLGFSDAMTFKERVRNHIMHLEEHLLCHRFFKNALEIASEILQTPVTEYDLYSHTSIWLLRTDFVLDYPKPVMPNMIFIGGINCHQGKPLPMEFEAYINASGEHGIVVFSLGSMVSEIPEKKAMAIADALGKIPQTVLWRYTGTRPSNLANNTILVKWLPQNDLLGHPMTRAFITHAGSHGVYESICNGVPMVMMPLFGDQMDNAKRMETKGAGVTLNVLEMTSEDLENALKAVINDKSYKENIMRLSSLHKDRPVEPLDLAVFWVEFVMRHKGAPHLRPAAHDLTWYQYHSLDVIGFLLAVVLTVAFITFKCCAYGYRKCLGKKGRVKKAHKSKTH
notes: as for B1
- Km [6]: 1.60 µM
- Vmax [6]: 9e-07 µmol/min/mg
- Vmax/Km [6]: 0.56 µL/min/mg

B5: recombinant human UGT1A7 (Homo sapiens) (protein)
chain: GKLLVVPMDGSHWFTMQSVVEKLILRGHEVVVVMPEVSWQLGRSLNCTVKTYSTSYTLEDQDREFMVFADARWTAPLRSAFSLLTSSSNGIFDLFFSNCRSLFNDRKLVEYLKESCFDAVFLDPFDACGLIVAKYFSLPSVVFARGIFCHYLEEGAQCPAPLSYVPRLLLGFSDAMTFKERVWNHIMHLEEHLFCPYFFKNVLEIASEILQTPVTAYDLYSHTSIWLLRTDFVLEYPKPVMPNMIFIGGINCHQGKPVPMEFEAYINASGEHGIVVFSLGSMVSEIPEKKAMAIADALGKIPQTVLWRYTGTRPSNLANNTILVKWLPQNDLLGHPMTRAFITHAGSHGVYESICNGVPMVMMPLFGDQMDNAKRMETKGAGVTLNVLEMTSEDLENALKAVINDKSYKENIMRLSSLHKDRPVEPLDLAVFWVEFVMRHKGAPHLRPAAHDLTWYQYHSLDVIGFLLAVVLTVAFITFKCCAYGYRKCLGKKGRVKKAHKSKTH
notes: as for B1
- Km [7]: 1.68 µM
- Vmax [7]: 1.2e-07 µmol/min/mg
- Vmax/Km [7]: 0.07 µL/min/mg

B6: recombinant human UGT1A1 (Homo sapiens) (protein)
chain: HAGKILLIPVDGSHWLSMLGAIQQLQQRGHEIVVLAPDASLYIRDGAFYTLKTYPVPFQREDVKESFVSLGHNVFENDSFLQRVIKTYKKIKKDSAMLLSGCSHLLHNKELMASLAESSFDVMLTDPFLPCSPIVAQYLSLPTVFFLHALPCSLEFEATQCPNPFSYVPRPLSSHSDHMTFLQRVKNMLIAFSQNFLCDVVYSPYATLASEFLQREVTVQDLLSSASVWLFRSDFVKDYPRPIMPNMVFVGGINCLHQNPLSQEFEAYINASGEHGIVVFSLGSMVSEIPEKKAMAIADALGKIPQTVLWRYTGTRPSNLANNTILVKWLPQNDLLGHPMTRAFITHAGSHGVYESICNGVPMVMMPLFGDQMDNAKRMETKGAGVTLNVLEMTSEDLENALKAVINDKSYKENIMRLSSLHKDRPVEPLDLAVFWVEFVMRHKGAPHLRPAAHDLTWYQYHSLDVIGFLLAVVLTVAFITFKCCAYGYRKCLGKKGRVKKAHKSKTH
notes: as for B1
- Km [8]: 7.57 µM
- Vmax [8]: 2e-07 µmol/min/mg
- Vmax/Km [8]: 0.03 µL/min/mg

— article PMC8552062, “Contributions of UDP-Glucuronosyltransferases to Human Hepatic and Intestinal Metabolism of Ticagrelor and Inhibition of UGTs and Cytochrome P450 Enzymes by Ticagrelor and its Glucuronidated Metabolite” (Frontiers in Pharmacology, 2021)
